B1: Actin cytoskeleton-regulatory complex protein SLA1 (Saccharomyces cerevisiae), P32790 (parent)
chain: MTVFLGIYRAVYAYEPQTPEELAIQEDDLLYLLQKSDIDDWWTVKKRVIGSDSEEPVGLVPSTYIEEAPVLKKVRAIYDYEQVQNADEELTFHENDVFDVFDDKDADWLLVKSTVSNEFGFIPGNYVEPENGSTSKQEQAPAAAEAPAATPAAAPASAAVLPTNFLPPPQHNDRARMMQSKEDQAPDEDEEGPPPAMPARPTATTETTDATAAAVRSRTRLSYSDNDNDDEEDDYYYNSNSNNVGNHEYNTEYHSWNVTEIEGRKKKKAKLSIGNNKINFIPQKGTPHEWSIDKLVSYDNEKKHMFLEFVDPYRSLELHTGNTTTCEEIMNIIGEYKGASRDPGLREVEMASKSKKRGIVQYDFMAESQDELTIKSGDKVYILDDKKSKDWWMCQLVDSGKSGLVPAQFIEPVRDKKHTESTASGIIKSIKKNFTKSPSRSRSRSRSKSNANASWKDDELQNDVVGSAAGKRSRKSSLSSHKKNSSATKDFPNPKKSRLWVDRSGTFKVDAEFIGCAKGKIHLHKANGVKIAVAADKLSNEDLAYVEKITGFSLEKFKANDGSSSRGTDSRDSERERRRRLKEQEEKERDRRLKERELYELKKARELLDEERSRLQEKELPPIKPPRPTSTTSVPNTTSVPPAESSNNNNSSNKYDWFEFFLNCGVDVSNCQRYTINFDREQLTEDMMPDINNSMLRTLGLREGDIVRVMKHLDKKFGRENIASIPTNATGNMFSQPDGSLNVATSPETSLPQQLLPQTTSPAQTAPSTSAETDDAWTVKPASKSESNLLSKKSEFTGSMQDLLDLQPLEPKKAAASTPEPNLKDLEPVKTGGTTVPAAPVSSAPVSSAPAPLDPFKTGGNNILPLSTGFVMMPMITGGDMLPMQRTGGFVVPQTTFGMQSQVTGGILPVQKTGNGLIPISNTGGAMMPQTTFGAAATVLPLQKTGGGLIPIATTGGAQFPQTSFNVQGQQQLPTGSILPVQKTANGLISANTGVSMPTVQRTGGTMIPQTSFGVSQQLTGGAMMTQPQNTGSAMMPQTSFNAVPQITGGAMMPQTSFNALPQVTGGAMMPLQRTGGALNTFNTGGAMIPQTSFSSQAQNTGGFRPQSQFGLTLQKTGGIAPLNQNQFTGGAMNTLSTGGVLQQQQPQTMNTFNTGGVMQELQMMTTFNTGGAMQQPQMMNTFNTDGIMQQPQMMNTFNTGGAMQQPQQQALQNQPTGFGFGNGPQQSRQANIFNATASNPFGF

Assays:
clh_yeast CHC1, P22137 [1] = variants of: B1; details: with clh_yeast CHC1, P22137
clh_yeast CHC1, P22137 [2] = variants of: B1; details: with clh_yeast CHC1, P22137; remark: listed apart in the source

Chain of clh_yeast CHC1, P22137 (P22137 whole entry): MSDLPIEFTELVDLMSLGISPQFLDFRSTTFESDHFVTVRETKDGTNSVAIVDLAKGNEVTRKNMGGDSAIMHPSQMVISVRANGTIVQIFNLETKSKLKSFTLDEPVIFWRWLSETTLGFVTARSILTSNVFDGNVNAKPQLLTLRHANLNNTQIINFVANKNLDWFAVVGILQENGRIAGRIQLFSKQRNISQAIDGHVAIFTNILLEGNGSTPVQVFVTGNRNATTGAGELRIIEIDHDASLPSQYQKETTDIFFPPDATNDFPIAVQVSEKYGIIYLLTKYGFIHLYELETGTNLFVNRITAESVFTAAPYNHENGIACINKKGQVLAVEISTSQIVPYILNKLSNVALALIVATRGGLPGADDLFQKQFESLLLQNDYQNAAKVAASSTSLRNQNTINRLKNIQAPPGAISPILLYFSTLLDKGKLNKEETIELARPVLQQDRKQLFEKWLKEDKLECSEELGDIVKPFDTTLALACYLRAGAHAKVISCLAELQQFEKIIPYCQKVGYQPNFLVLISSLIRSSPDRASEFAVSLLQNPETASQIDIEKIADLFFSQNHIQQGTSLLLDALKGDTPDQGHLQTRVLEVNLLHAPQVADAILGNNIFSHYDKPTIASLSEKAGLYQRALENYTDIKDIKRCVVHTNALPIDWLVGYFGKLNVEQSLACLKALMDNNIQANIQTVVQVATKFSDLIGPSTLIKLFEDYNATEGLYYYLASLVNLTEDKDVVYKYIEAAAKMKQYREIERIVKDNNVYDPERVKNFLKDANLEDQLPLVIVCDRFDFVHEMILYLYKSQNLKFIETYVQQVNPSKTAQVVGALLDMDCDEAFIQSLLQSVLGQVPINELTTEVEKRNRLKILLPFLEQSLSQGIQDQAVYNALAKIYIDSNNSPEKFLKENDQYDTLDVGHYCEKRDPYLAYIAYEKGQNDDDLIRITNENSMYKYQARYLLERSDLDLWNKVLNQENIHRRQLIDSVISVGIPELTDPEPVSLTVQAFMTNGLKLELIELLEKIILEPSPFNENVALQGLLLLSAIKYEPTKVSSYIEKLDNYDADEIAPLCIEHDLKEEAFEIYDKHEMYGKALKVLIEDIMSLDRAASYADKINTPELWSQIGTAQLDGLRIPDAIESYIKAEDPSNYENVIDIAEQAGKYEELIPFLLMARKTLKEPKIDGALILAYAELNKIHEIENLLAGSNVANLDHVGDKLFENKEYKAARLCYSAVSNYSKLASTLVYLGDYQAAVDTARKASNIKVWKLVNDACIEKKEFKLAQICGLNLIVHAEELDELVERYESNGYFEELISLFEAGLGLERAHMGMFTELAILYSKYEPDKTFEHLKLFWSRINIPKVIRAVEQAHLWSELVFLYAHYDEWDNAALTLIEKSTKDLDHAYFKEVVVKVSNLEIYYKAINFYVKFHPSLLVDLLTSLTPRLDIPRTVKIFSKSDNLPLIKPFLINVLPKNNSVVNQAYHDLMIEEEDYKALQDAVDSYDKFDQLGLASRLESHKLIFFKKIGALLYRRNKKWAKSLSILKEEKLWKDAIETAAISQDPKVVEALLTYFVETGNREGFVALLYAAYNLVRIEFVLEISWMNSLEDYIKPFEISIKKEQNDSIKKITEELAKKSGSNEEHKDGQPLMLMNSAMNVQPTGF

| Variant | effect of a mutation on the interaction (clh_yeast CHC1, P22137 [1]) | effect of a mutation on the interaction (clh_yeast CHC1, P22137 [2]) |
| --- | --- | --- |
| L803A | decreasing interaction | disrupting interaction |
| L804A | decreasing interaction | disrupting interaction |
| D805A | decreasing interaction | disrupting interaction |

Reference: IntAct's records for PubMed 20150898
